In US20230086210A1 (Hoffmann-La Roche, published 2023):

What was measured:
[1] = biological target: human 4-1BB on Jurkat-hu4-1BB-NFκB-luc2 reporter cells (human, UniProt Q07011 24-255); experiment: cell-based or functional assay; set-up: AUC of NFκB-activation-induced Luciferase activity curve: unit not given beside the values
[2] = biological target: T1, human PD-L1 on MKN45-huPD-L1 cells (human, UniProt Q9NZQ7 19-290); experiment: flow cytometry on MKN45-huPD-L1 cells, area under the binding curve; set-up: unit not given beside the values
T1 construct: The entry is the complete precursor; also called MKN45-PD-L1; human PD-L1-expressing MKN45 cells

[3] = biological target: T1, human PD-L1 on MKN45-huPD-L1 cells; experiment: flow cytometry on MKN45-huPD-L1 cells, PE-conjugated goat F(ab')2 anti-human Fcγ, geo mean of fluorescence, baseline corrected
Method: All values are baseline corrected by subtracting the baseline values of the blank control (e.g. no primary only secondary detection antibody).
Cells were incubated for 30 min at 4° C. and then washed twice with 80 μL/well DPBS. […] Cells were washed twice with 80 μL/well DPBS and then fixed in 30 μL/well DPBS containing 1% formaldehyde for at least 15 minutes.

Chain of human 4-1BB on Jurkat-hu4-1BB-NFκB-luc2 reporter cells (Q07011 24-255): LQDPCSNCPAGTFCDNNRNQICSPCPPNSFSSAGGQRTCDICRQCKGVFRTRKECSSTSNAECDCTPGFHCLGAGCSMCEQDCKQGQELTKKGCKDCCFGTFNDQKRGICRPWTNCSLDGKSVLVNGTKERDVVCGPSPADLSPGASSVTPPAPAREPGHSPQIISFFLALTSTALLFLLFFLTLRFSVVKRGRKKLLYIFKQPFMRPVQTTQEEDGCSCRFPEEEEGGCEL
T1 sequence (Q9NZQ7 19-290 limits assumed): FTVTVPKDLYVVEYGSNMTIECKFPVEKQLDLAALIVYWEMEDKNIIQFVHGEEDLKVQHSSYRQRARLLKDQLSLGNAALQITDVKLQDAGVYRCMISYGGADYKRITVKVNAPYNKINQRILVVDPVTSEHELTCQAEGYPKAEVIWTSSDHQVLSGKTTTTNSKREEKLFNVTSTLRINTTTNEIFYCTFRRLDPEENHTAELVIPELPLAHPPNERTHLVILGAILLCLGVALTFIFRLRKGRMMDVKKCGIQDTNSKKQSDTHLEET

Binder	AUC of NFκB-activation-induced Luciferase activity curve [1]	EC50 of NFκB-activation-induced Luciferase activity curve [1] [nM]	AUC [2]	binding result [3]
4-1BB huIgG1 P329G LALA (anti-human 4-1BB clone 20H4.9 as huIgG1 P329G LALA) (antibody, V domains shown, Human IgG1 with P329G L234A L235A) VH: QVQLQQWGAGLLKPSETLSLTCAVYGGSFSGYYWSWIRQSPEKGLEWIGEINHGGYVTYNPSLESRVTISVDTSKNQFSLKLSSVTAADTAVYYCARDYGPGNYDWYFDLWGRGTLVTVSS VL: EIVLTQSPATLSLSPGERATLSCRASQSVSSYLAWYQQKPGQAPRLLIYDASNRATGIPARFSGSGSGTDFTLTISSLEPEDFAVYYCQQRSNWPPALTFGGGTKVEIK	8870	0.32	432	no binding (tested: 100 nM)
4-1BB×PD-L1 2+1 (bispecific agonistic 4-1BB×PD-L1 antibody with bivalent binding to 4-1BB (clone 20H4.9) and monovalent binding to PD-L1, Head to Head 2+1 … (bispecific antibody) heavy 1: QVQLQQWGAGLLKPSETLSLTCAVYGGSFSGYYWSWIRQSPEKGLEWIGEINHGGYVTYNPSLESRVTISVDTSKNQFSLKLSSVTAADTAVYYCARDYGPGNYDWYFDLWGRGTLVTVSSASTKGPSVFPLAPSSKSTSGGTAALGCLVEDYFPEPVTVSWNSGALTSGVHTFPAVLQSSGLYSLSSVVTVPSSSLGTQTYICNVNHKPSNTKVDEKVEPKSCDKTHTCPPCPAPEAAGGPSVFLFPPKPKDTLMISRTPEVTCVVVDVSHEDPEVKFNWYVDGVEVHNAKTKPREEQYNSTYRVVSVLTVLHQDWLNGKEYKCKVSNKALGAPIEKTISKAKGQPREPQVCTLPPSRDELTKNQVSLSCAVKGFYPSDIAVEWESNGQPENNYKTTPPVLDSDGSFFLVSKLTVDKSRWQQGNVFSCSVMHEALHNHYTQKSLSLSP heavy 2: not shown light 1: not shown light 2: not shown	135000	0.037		
4-1BB×PD-L1 1+1 (bispecific antibody with monovalent binding to 4-1BB (clone 20H4.9) and monovalent binding to PD-L1) (bispecific antibody) heavy 1: QVQLQQWGAGLLKPSETLSLTCAVYGGSFSGYYWSWIRQSPEKGLEWIGEINHGGYVTYNPSLESRVTISVDTSKNQFSLKLSSVTAADTAVYYCARDYGPGNYDWYFDLWGRGTLVTVSSASTKGPSVFPLAPSSKSTSGGTAALGCLVEDYFPEPVTVSWNSGALTSGVHTFPAVLQSSGLYSLSSVVTVPSSSLGTQTYICNVNHKPSNTKVDEKVEPKSCDKTHTCPPCPAPEAAGGPSVFLFPPKPKDTLMISRTPEVTCVVVDVSHEDPEVKFNWYVDGVEVHNAKTKPREEQYNSTYRVVSVLTVLHQDWLNGKEYKCKVSNKALGAPIEKTISKAKGQPREPQVCTLPPSRDELTKNQVSLSCAVKGFYPSDIAVEWESNGQPENNYKTTPPVLDSDGSFFLVSKLTVDKSRWQQGNVFSCSVMHEALHNHYTQKSLSLSP heavy 2: not shown light 1: not shown light 2: not shown	122000	0.097		
